The values below come from PMC2588538, “Structure of Reovirus σ1 in Complex with Its Receptor Junctional Adhesion Molecule-A” (PLoS Pathogens, 2008).

B1: σ1 of reovirus strain rsT3D-σ1T249I (parent), on purified virions [mammalian orthoreovirus, strain type 3 Dearing (T3D)] / GST-JAM-A ectodomain fusion protein [not stated] (parent complex)
chain 1: MDPRLREEVVRLIIALTSDNGASLSKGLESRVSALEKTSQIHSDTILRITQGLDDANKRIIALEQSRDDLVASVSDAQLAISRLESSIGALQTVVNGLDSSVTQLGARVGQLETGLAELRVDHDNLVARVDTAERNIGSLTTELSTLTLRVTSIQADFESRISTLERTAVTSAGAPLSIRNNRMTMGLNDGLTLSGNNLAIRLPGNTGLNIQNGGLQFRFNTDQFQIVNNNLTLKTTVFDSINSRIGAIEQSYVASAVTPLRLNSSTKVLDMLIDSSTLEINSSGQLTVRSTSPNLRYPIADVSGGIGMSPNYRFRQSMWIGIVSYSGSGLNWRVQVNSDIFIVDDYIHICLPAFDGFSIADGGDLSLNFVTGLLPPLLTGDTEPAFHNDVVTYGAQTVAIGLSSGGAPQYMSKNLWVEQWQDGVLRLRVEGGGSITHSNSKWPAMTVSYPRSFT
chain 2: SVTVHSSEPEVRIPENNPVKLSCAYSGFSSPRVEWKFDQGDTTRLVCYNNKITASYEDRVTFLPTGITFKSVTREDTGTYTCMVSEEGGNSYGEVKVKLIVLVPPSKPTVNIPSSATIGNRAVLTCSEQDGSPPSEYTWFKDGIVMPTNPKSTRAFSNSSYVLNPTTGELVFDPLSASDTGEYSCEARNGYGTPMTSNAVRMEAVERNVGV

The experiment covers variants of B1. In words: SPR; 8×1012 (orange) particles/ml virus; GST-JAM-A captured on biosensor surface; parent: 98; read off a plot. (In general: SPR reads the build-up and loss of mass on a sensor chip optically.)
As to chain 1 N369A, the response is around 25 RU.
